The record followed here is patent US20230257454A1 (STAIDSON BEIJING BIOPHARMACEUTICALS, published 2023).

B1: Cab20 scFv (scFv, V domains shown)
VH: EVQLVESGGGLVQPGGSLKVSCAASGFTFRDYYMQWVRQAPGKGPEWVGLIRNKAIGETAEYAASVKGRFTISRDDSKSIVYLQMSSLKTEDTAVYYCTSRAGPPGLSWGQGVLVTVSS
VL: DIVMIQNPLSLPVTPGEPASISCRSSQSLLHSDGYTYLDWYLQKPGQSPQLLIYGGSNRASGVPDRFSGSGSGTDFTLKISKVEAEDVGVYYCMQHKVLPLTFAGGTKLEIK
B2: Cab30 scFv (scFv, V domains shown)
VH: B1 VH with E1D, V2M, R30S, I56V, E58G, A60T, E61Q, Q84E, T99V
VL: B1 VL with I5T, N7T, K44R, Q50H, L101P, A104G, G105Q
B3: Cab27 scFv (scFv, V domains shown)
VH: B1 VH with E6Q, E58G, A60T, E61Q, T99V
VL: DAVMTQTPLSLPVTPGEPASISCRSSQSLLASDGYNYIDWYLQRPGQSPKVLIYGGSNRASGVPDRFSGSGSGTYFTLKISKVEAEDVGFYFCLQHRALPPTFGQGTKLEIK
B4: Cab11 scFv (scFv, V domains shown)
VH: EVQLVESGGGLVQPGGSLRVSCAASGFRFSDFYMQWVRQAPGKRPEWVGLIRNKPYGGTAEYAASVKGRFTISRDDSKSVTDLQMSSLKTEDTAIYYCVMRNNGYHWGQGVLVTISS
VL: B1 VL with I2A, I5T, N7I, S32T, V98A, L101P, A104G
B5: Cab02 scFv (scFv, V domains shown)
VH: EVQLVESGGGLVQPGGSLKVSCAASGFIFSDYYMQWVRQAPGKGPEWVGLIRKKVNGGTTEYAASVKGRFTISRDDSKSIAYLQMSSLKIEDTAVYYCVSRAGPPGLTWGQGVLVTISS
VL: B1 VL with N7T, S28R, V98A, A104G
B6: Cab06 scFv (scFv, V domains shown)
VH: B5 VH with Q3H, A81V
VL: B1 VL with H31A, T36N, L38M, Q50K, L51V, S81T, V90I, L101P, A104G, G105Q
B7: Cab09 scFv (scFv, V domains shown)
VH: B5 VH
VL: B1 VL with N7T, L38V, L51I, S81T, K82N, M94L, V98A, L101P, A104G, G105Q
B8: Cab28 scFv (scFv, V domains shown)
VH: B1 VH with E1D, V2M, R30S, I56V, E58G, A60T, E61Q, Q84E, T99V
VL: DIVMIQNPLSLPVTPGEPASISCRSSQNLLATDGYTYLDWYLQKPGQSPQVLIYGGSKRASGVPDRFSGSGSGTDFTLKISKVEAEDVGIYYCLQHRALPPTFGQGTKLEIK
B9: Cab12 scFv (scFv, V domains shown)
VH: B1 VH with E1V, R30S, A60T, E61Q, T99V, V117I
VL: B1 VL with M4L, I5T, N7T, S28R, L38M, L51I, V98A, L101P, A104G, G105Q
B10: Cab07 scFv (scFv, V domains shown)
VH: B1 VH with E1D, R30S, A60T, T99V, V117I
VL: DTVMTQIPLSLSVTPGEPASISCRSSQRLLHTDGYTYLDWYHQKPGQSPQLLIYGGSNRASGVPDRFSGSGSVTDFTLKISKMEAEDVGVYYCMQHKALPPTFGGGTKLEIK
B11: Cab08 scFv (scFv, V domains shown)
VH: EVQLVESGGGLIQPGGSLRVSCAASGFTFSDYYLQWVRQAPGKGPEWVGLIRTKRYGGTSEYAASVKGRYTISRDDSKAIAYLQMSSLKTEDTAVYYCVVRIFTGLHWGKGTPVTVSS
VL: B1 VL with I5T, N7T, L11R, S32T, V98A, A104G
B12: Cab14 scFv (scFv, V domains shown)
VH: VVQLVESGGGLVQPGGSLKVSCATSGFTFSDYYMQWVRQAPGKGPEWLGLIRNKAIGGTTQYAASVKGRFTISRDDSKGIAYLQMSSLKTEDTAVYYCVCRAGPPGLSWGQGVLVTVSS
VL: B1 VL with V3E, M4L, I5T, N7T, L11R, S32T, V98A, A104G
B13: Cab10 scFv (scFv, V domains shown)
VH: B5 VH with E1Q, A81V, V115I, I117V
VL: B1 VL with I2T, I5S, N7I, S32T, T36I, V98A, A104G
B14: Cab16 scFv (scFv, V domains shown)
VH: B1 VH with Q3H, R30S, A60T, T90P, T99A, S100G, A102L
VL: B1 VL with I2A, I5T, N7I, S32T, V98A, A104G, K108R
B15: Cab29 scFv (scFv, V domains shown)
VH: B1 VH with E1D, V2M, R30S, I56V, E58G, A60T, E61Q, Q84E, T99V
VL: DIVMIQNPLSLSVSLGEPASISCRSSQSLLATDGYEYLDWYLQKPGQSPQILIYGASNRASGVPDRFSGRGSGTDFTLKITKVEAEDVGVYYCLQHKALPPTFGQGTKLEIK
B16: Cab31 scFv (scFv, V domains shown)
VH: B1 VH with E1D, V2M, R30S, I56V, E58G, A60T, E61Q, Q84E, T99V
VL: B1 VL with I2T, I5S, N7I, L38M, L101P, A104G, G105Q, K108R
B17: Cab22 scFv (scFv, V domains shown)
VH: VVQLVESGGGLVQPGGSLKVSCTASGFIFNDYYMQWVRQAPGKGPEWVGLIRNKANGGTTEYAASVKGRFTISRDDSKSIVYLQMSSLKTEDTAVYFCTGRLGPPGLTWGQGVLVTISS
VL: B3 VL
B18: Cab39 (reformatted as human IgG1) (antibody, V domains shown)
VH: EMQLVESGGGLVQPGGSLRLSCAASGFTFSDYYMQWVRQAPGKGPEWVGLIRNKAVGITTQYAASVKGRFTISRDDSKNSVYLQMNSLKTEDTAVYYCVSRAGPPGLSWGQGVLVTVSS
VL: B3 VL with A2I, T7S, R44K, K50Q, V51L, Y75D, K82R, F90V
B19: Cab41 (reformatted as human IgG1) (antibody, V domains shown)
VH: B18 VH with I58R
VL: B3 VL with A2I, T7S, R44K, K50Q, V51L, Y75D, K82R, F90V
B20: Cab23 scFv (scFv, V domains shown)
VH: EVQLVESGGGLVQPGGSLRLSCAASGFTFSDYYIQWVRQAPGKGPEWVGLIRNKAIGGTVEYAASVKGRFTISRDDSKRIAYLQMRSLKTEDTAVYFCTGRVGPPGLTWGQGVLVTISS
VL: B3 VL
B21: Cab25 scFv (scFv, V domains shown)
VH: EVQLVESGGGFVQPGGSLKVSCVASGFTFSDYYIQWVRQAPGKGPEWVGLIRNKAVGGTTTYAASVKGRFTISRDDSKSVAYLQMTSLKTEDTAVYFCVSRAGPPGLSWGQGVLVTISS
VL: B3 VL
B22: Cab33 (reformatted as human IgG1) (antibody, V domains shown)
VH: B18 VH with I58G
VL: B3 VL with A2I, T7S, R44K, K50Q, V51L, Y75D, K82R, F90V, R97K
B23: Cab40 (reformatted as human IgG1) (antibody, V domains shown)
VH: B18 VH with I58Q
VL: B3 VL with A2I, T7S, R44K, K50Q, V51L, Y75D, K82R, F90V
B24: Cab34 (reformatted as human IgG1) (antibody, V domains shown)
VH: B18 VH with I58G, Q61E
VL: B3 VL with A2I, T7S, R44K, K50Q, V51L, Y75D, K82R, F90V
B25: Cab24 scFv (scFv, V domains shown)
VH: B5 VH with E1V, A81V, T108A
VL: B3 VL
B26: Cab32 (reformatted as human IgG1) (antibody, V domains shown)
VH: B18 VH with I58G
VL: B3 VL with A2I, T7S, N36I, R44K, K50Q, V51L, Y75D, K82R, F90V
B27: Cab26 scFv (scFv, V domains shown)
VH: EVQLVESGGGLVLPGGSLKVSCAASGFIFSDYYIQWVRQAPGKGPEWVGLIRNKAVGETVQYAASLKGRFTISRDDSKSIAYLQMTSLKTEDTAMYYCVSRAGPPGLTWGQGVLVTISS
VL: B3 VL

Residue numbers refer to the chain shown, from its start.

The assay addresses T1, human C5a (source not stated) (human, UniProt P01031 678-751).
T1 sequence: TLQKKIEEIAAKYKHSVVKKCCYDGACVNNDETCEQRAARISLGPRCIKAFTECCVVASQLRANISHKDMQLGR
The experiment in a line: cell-based or functional assay.
B1 displayed an ROS IC50 of 0.81 nM.
As for B2, the ROS IC50 was 1.18 nM.
Next, B3: 1.21 nM; B4: 1.57 nM.
Molecule B5 returned an ROS IC50 of 1.67 nM.
To B6 belongs 1.03 nM; to B7, 1.54 nM.
To B8 belongs 0.98 nM; to B9, 1.22 nM; to B10, 1.07 nM.
Next, B11: 1.29 nM; B12: 1.2 nM; B13: 2.02 nM.
As for B14, the ROS IC50 amounted to 0.87 nM.
Molecule B15 registered an ROS IC50 of 0.96 nM.
Next, B16: 1.26 nM; B17: 0.91 nM; B18: 0.91 nM.
To B19 belongs 0.7 nM; to B20, 0.92 nM; to B21, 0.54 nM.
Next, B22: 1.7 nM; B23: 0.7 nM; B24: 1.61 nM.
The molecule B25 came in with an ROS IC50 of 1.44 nM.
The molecule B26 showed an ROS IC50 of 1.76 nM.
Next, B27: 1.13 nM.
